Reference: the Human Domainome abundance scans (Beltran et al. 2025)
± gives the uncertainty stated by the source.

B1: 1-phosphatidylinositol 4,5-bisphosphate phosphodiesterase gamma-2, residues 772 to 827; numbered along this chain, P16885 (parent)
chain: RTVKALYDYKAKRSDELSFCRGALIHNVSKEPGGWWKGDYGTRIQQYFPSNYVEDI

Variants of: B1
Test: abundance fitness (aPCA) (normalised: wild type 0, dead -1); higher = more abundant; growth selection in yeast, the domain comes from the species named
Settings: Homo sapiens

Point of comparison: RTVKALYDYKAKRSDELSFCRGALIHNVSKEPGGWWKGDYGTRIQMYFPSNYVEDI [Q46M], abundance fitness 0.006 ± 0.075. Against it:
- RTVKALYDYKAKRSDELSFCRGALIHNVSKEPGGWWKGDYGTRIQPYFPSNYVEDI [Q46P] — lower, -0.866 ± 0.27
- RTVKALYDYKAKRSDELSFCRGALIHNVSKEPGGWWKGDYGTRIQCYFPSNYVEDI [Q46C] — lower, -0.193 ± 0.11
- RTVKALYDYKAKRSDELSFCRGALIHNVSKEPGGWWKGDYGTRIQKYFPSNYVEDI [Q46K] — within error, -0.067 ± 0.097
- RTVKALYDYKAKRSDELSFCRGALIHNVSKEPGGWWKGDYGTRIQTYFPSNYVEDI [Q46T] — lower, -0.391 ± 0.097
- RTVKALYDYKAKRSDELSFCRGALIHNVSKEPGGWWKGDYGTRIQDYFPSNYVEDI [Q46D] — lower, -0.673 ± 0.21
- RTVKALYDYKAKRSDELSFCRGALIHNVSKEPGGWWKGDYGTRIQLYFPSNYVEDI [Q46L] — within error, -0.041 ± 0.062
- RTVKALYDYKAKRSDELSFCRGALIHNVSKEPGGWWKGDYGTRIQYYFPSNYVEDI [Q46Y] — within error, -0.223 ± 0.17
- RTVKALYDYKAKRSDELSFCRGALIHNVSKEPGGWWKGDYGTRIQWYFPSNYVEDI [Q46W] — lower, -0.367 ± 0.086
- RTVKALYDYKAKRSDELSFCRGALIHNVSKEPGGWWKGDYGTRIQAYFPSNYVEDI [Q46A] — within error, 0.053 ± 0.06
- RTVKALYDYKAKRSDELSFCRGALIHNVSKEPGGWWKGDYGTRIQNYFPSNYVEDI [Q46N] — within error, -0.114 ± 0.16
- RTVKALYDYKAKRSDELSFCRGALIHNVSKEPGGWWKGDYGTRIQVYFPSNYVEDI [Q46V] — lower, -0.653 ± 0.092
- RTVKALYDYKAKRSDELSFCRGALIHNVSKEPGGWWKGDYGTRIQFYFPSNYVEDI [Q46F] — lower, -0.274 ± 0.1
- RTVKALYDYKAKRSDELSFCRGALIHNVSKEPGGWWKGDYGTRIQSYFPSNYVEDI [Q46S] — within error, 0.054 ± 0.077
- RTVKALYDYKAKRSDELSFCRGALIHNVSKEPGGWWKGDYGTRIQRYFPSNYVEDI [Q46R] — lower, -0.175 ± 0.073
- RTVKALYDYKAKRSDELSFCRGALIHNVSKEPGGWWKGDYGTRIQGYFPSNYVEDI [Q46G] — within error, 0.086 ± 0.071
- RTVKALYDYKAKRSDELSFCRGALIHNVSKEPGGWWKGDYGTRIQEYFPSNYVEDI [Q46E] — lower, -0.684 ± 0.39
- RTVKALYDYKAKRSDELSFCRGALIHNVSKEPGGWWKGDYGTRIVQYFPSNYVEDI [Q45V] — lower, -0.942 ± 0.17
- RTVKALYDYKAKRSDELSFCRGALIHNVSKEPGGWWKGDYGTRIEQYFPSNYVEDI [Q45E] — lower, -0.819 ± 0.29
- RTVKALYDYKAKRSDELSFCRGALIHNVSKEPGGWWKGDYGTRIGQYFPSNYVEDI [Q45G] — lower, -0.278 ± 0.081
- RTVKALYDYKAKRSDELSFCRGALIHNVSKEPGGWWKGDYGTRIWQYFPSNYVEDI [Q45W] — lower, -0.916 ± 0.45
- RTVKALYDYKAKRSDELSFCRGALIHNVSKEPGGWWKGDYGTRIYQYFPSNYVEDI [Q45Y] — lower, -0.732 ± 0.28
- RTVKALYDYKAKRSDELSFCRGALIHNVSKEPGGWWKGDYGTRIIQYFPSNYVEDI [Q45I] — lower, -0.658 ± 0.28
- RTVKALYDYKAKRSDELSFCRGALIHNVSKEPGGWWKGDYGTRISQYFPSNYVEDI [Q45S] — lower, -0.472 ± 0.093
- RTVKALYDYKAKRSDELSFCRGALIHNVSKEPGGWWKGDYGTRILQYFPSNYVEDI [Q45L] — lower, -0.923 ± 0.25
- RTVKALYDYKAKRSDELSFCRGALIHNVSKEPGGWWKGDYGTRIDQYFPSNYVEDI [Q45D] — lower, -0.753 ± 0.23
- RTVKALYDYKAKRSDELSFCRGALIHNVSKEPGGWWKGDYGTRICQYFPSNYVEDI [Q45C] — lower, -0.33 ± 0.13
- RTVKALYDYKAKRSDELSFCRGALIHNVSKEPGGWWKGDYGTRIAQYFPSNYVEDI [Q45A] — lower, -0.335 ± 0.091
- RTVKALYDYKAKRSDELSFCRGALIHNVSKEPGGWWKGDYGTRIRQYFPSNYVEDI [Q45R] — lower, -0.92 ± 0.14
- RTVKALYDYKAKRSDELSFCRGALIHNVSKEPGGWWKGDYGTRIKQYFPSNYVEDI [Q45K] — lower, -0.51 ± 0.16
- RTVKALYDYKAKRSDELSFCRGALIHNVSKEPGGWWKGDYGTRIHQYFPSNYVEDI [Q45H] — lower, -0.458 ± 0.1
- RTVKALYDYKAKRSDELSFCRGALIHNVSKEPGGWWKGDYGTRITQYFPSNYVEDI [Q45T] — lower, -0.651 ± 0.24
- RTVKALYDYKAKRSDELSFCRGALIHNVSKEPGGWWKGDYGTRINQYFPSNYVEDI [Q45N] — lower, -0.273 ± 0.11
- RTVKALYDYKAKRSDELSFCRGALIHNVSKEPGGWWKGDYGTRIPQYFPSNYVEDI [Q45P] — lower, -0.699 ± 0.28
- RTVKALYDYKAKRSDELSFCRGALIHNVSKEPGGWWKGDYGTRIQQYFPRNYVEDI [S50R] — within error, 0.035 ± 0.062
- RTVKALYDYKAKRSDELSFCRGALIHNVSKEPGGWWKGDYGTRIQQYFPPNYVEDI [S50P] — lower, -0.241 ± 0.081
- RTVKALYDYKAKRSDELSFCRGALIHNVSKEPGGWWKGDYGTRIQQYFPKNYVEDI [S50K] — within error, 0.103 ± 0.12
- RTVKALYDYKAKRSDELSFCRGALIHNVSKEPGGWWKGDYGTRIQQYFPCNYVEDI [S50C] — lower, -0.18 ± 0.1
- RTVKALYDYKAKRSDELSFCRGALIHNVSKEPGGWWKGDYGTRIQQYFPFNYVEDI [S50F] — lower, -0.181 ± 0.061
- RTVKALYDYKAKRSDELSFCRGALIHNVSKEPGGWWKGDYGTRIQQYFPANYVEDI [S50A] — higher, 0.221 ± 0.095
- RTVKALYDYKAKRSDELSFCRGALIHNVSKEPGGWWKGDYGTRIQQYFPINYVEDI [S50I] — lower, -0.261 ± 0.096
- RTVKALYDYKAKRSDELSFCRGALIHNVSKEPGGWWKGDYGTRIQQYFPWNYVEDI [S50W] — lower, -0.412 ± 0.088
- RTVKALYDYKAKRSDELSFCRGALIHNVSKEPGGWWKGDYGTRIQQYFPGNYVEDI [S50G] — within error, -0.093 ± 0.058
- RTVKALYDYKAKRSDELSFCRGALIHNVSKEPGGWWKGDYGTRIQQYFPMNYVEDI [S50M] — within error, 0.071 ± 0.1
- RTVKALYDYKAKRSDELSFCRGALIHNVSKEPGGWWKGDYGTRIQQYFPQNYVEDI [S50Q] — lower, -0.398 ± 0.15
- RTVKALYDYKAKRSDELSFCRGALIHNVSKEPGGWWKGDYGTRIQQYFPDNYVEDI [S50D] — lower, -0.506 ± 0.12
- RTVKALYDYKAKRSDELSFCRGALIHNVSKEPGGWWKGDYGTRIQQYFPTNYVEDI [S50T] — lower, -0.352 ± 0.071
